Source: patent publication US20220119506A1 (NOVOBIND LIVESTOCK THERAPEUTICS, published 2022)

T1: PirB (Vibrio parahaemolyticus)
T1 construct: also called JHE-like toxin PirB-like
T1 chain: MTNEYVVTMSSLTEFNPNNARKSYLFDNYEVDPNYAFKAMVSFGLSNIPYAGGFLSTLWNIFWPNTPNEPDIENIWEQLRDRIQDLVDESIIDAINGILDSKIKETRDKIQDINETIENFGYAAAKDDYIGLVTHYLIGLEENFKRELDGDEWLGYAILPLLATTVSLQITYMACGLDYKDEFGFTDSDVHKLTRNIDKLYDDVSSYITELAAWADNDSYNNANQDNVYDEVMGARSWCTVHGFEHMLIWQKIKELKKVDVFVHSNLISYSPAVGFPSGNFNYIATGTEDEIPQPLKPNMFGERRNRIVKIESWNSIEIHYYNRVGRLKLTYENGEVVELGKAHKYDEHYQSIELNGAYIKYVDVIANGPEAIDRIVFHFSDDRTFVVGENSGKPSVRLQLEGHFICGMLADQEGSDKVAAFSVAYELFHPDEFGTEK

B1: NBX0626 (VHH)
VHH: QVQLQQSGGGLVQAGGSLRLACAVSETTLATNAMAWYRQAQGKRREWVATISSVSSGGITNYSGSVKGRFTISRDNAKNTVFLQMNSLQPEDTAVYYCNGVRRGRSYWGQGTQVTVSS
notes: on phage in the phage ELISA
B2: NBX09001 (VHH)
VHH: QVQLQESGGGSVQPGGSLRLSCAASGSALSSNVLGWYRQAPGKQRELVATISSGGLTNYADSVKGRFTISRDNAKNTVYLQMNSLKPEDTAVYYCQSRRLFTVYWGQGTQVTVSS
notes: on phage in the phage ELISA
B3: NBX0851 (VHH)
VHH: QVQLQQSGGGLVQPGGSLRLSCAASGRMFSGYVMGWYRQAPGKQRELVATITNGGLTNYADSVKGRFTISRDNAKNTVYLQMNSLKPDDTAVYYCNARRLWDIYWGQGTQVTVSS
notes: on phage in the phage ELISA
B4: NBX0857 (VHH)
VHH: QVQLQQSGGGLVQPGGSLRLSCAASGRIFSGHVMGWYRQAPGKQRELVATITNGGLTNYGDSVKGRFTISRDNAKNTVYLQMNSLKPDDTAVYYCNARRLWDTYWGQGTQVTVSS
notes: on phage in the phage ELISA
B5: NBX09005 (VHH)
VHH: QVQLQESGGGLVQAGGSLRLSCAASGLTFGSYAMGWFRQAPGKEREFVAAIMRYSSRTYYTDSVKGRFTISRDNAKNTVNLQMNNLEPEDTAIYYCAAAKRLSIVTLPRQYEFWGQGTQVTVSS
notes: on phage in the phage ELISA
B6: NBX09009 (VHH)
VHH: QVQLQESGGGLVQAGGSLRLSCAASGLTFGSYAMGWFRQAPGKEREFVATIMRYSSRTYYTDSVKGRFTISRDNAKNTVNLQMNNLEPEDAAIYYCAAAKRLSIVALPRQYEFWGQGTQVTVSS
notes: on phage in the phage ELISA
B7: NBX09010 (VHH)
VHH: QVQLQQSGGGLVQAGGSLRLSCAASGLTFGSYAMGWFRQAPGKEREFVAAIMRYSSRTYYTDSVKGRFTISRDNAKNTVNLQMNNLEPEDTAIYYCAAAKRLSRVTLPREYEFWGQGTQVTVSS
notes: on phage in the phage ELISA
B8: NBX0827 (VHH)
VHH: QVQLQESGGGLVQAGGSLRLSCAASGSISSSFVMGWYRQAPGKQRELVATITSGGSTIYADSVKGRFTVSRDNAKNTVYLQMNSLKSEDTAVYYCHARRLWNTYWGQGTQVTVSS
notes: on phage in the phage ELISA
B9: NBX0854 (VHH)
VHH: QVQLQQSGGGLVQAGGSLRISCAASGSISSAYVMGWYRQAPGTQRELVATITSGGTTNYADSVKGRFTVSRDNAKNTVYLQMNSLKPDDTAVYYCNARRLWTTYWGQGTQVTVSS
notes: on phage in the phage ELISA
B10: NBX0831 (VHH)
VHH: QVQLQESGGGLVQAGGSLRLSCSASGDAFSRYVMGWYRQAPGKQRELVATITSGGSTIYADSVKGRFTVSRDNAKNTVYLQMNSLKSEDTAVYYCHARRLWNTYWGQGTQVTVSS
notes: on phage in the phage ELISA
B11: NBX0858 (VHH)
VHH: QVQLQESGGGLVQAGGSLRLSCAASRRDFTTTTMAWYRQAPGKKRETVATVNTGGLTWYADFVKGRFTISRDDAVNTLLLQMDSLKPEDTAVYYCNAVLVRARGMWGQGTQVTVSS
notes: on phage in the phage ELISA
B12: NBX09007 (VHH)
VHH: QVQLQESGGGLVQPGGSLRLSCAASGSISSSYVMGWYRQAPGKQRDLVATITNAGNIHYGDSVKGRFTISRDNAKNTVSLQMNSLKPEDTAVYYCNARALWRAYWGQGTQVTVSS
notes: on phage in the phage ELISA
B13: NBX0865 (VHH)
VHH: QVQLQESGGGLVQAGGSLRLSCADSGRVFSTYVMGWYRQVPGKQRELVATITPGGLINYGDAVKGRFTISRDNAKNTVYLQMNSLKPADTAVYYCNARRLFAINWGGGTQVTVSS
notes: on phage in the phage ELISA
B14: NBX09003 (VHH)
VHH: QVQLQESGGGLVQPGGSLRLSCTASGSIFSLLNMGWYRQAPGKQRELVASITSRSYTNYADSVKGRFTISRDNTKNMVYLQMNSLKPEDTAVYYCNLNPADWGRLRNWGQGTQVTVSS
notes: on phage in the phage ELISA
B15: NBX0850 (VHH)
VHH: QVQLQESGGGLVQAGGSLRLSCAASGSISASYVMGWYRQTPGKQRELVATTTSGGTTRYADSVRGRFTISRDNARNTVYLQMNSLKPDDTAVYYCNARRLFLNYWGQGTQVTVSS
notes: on phage in the phage ELISA
B16: NBX0863 (VHH)
VHH: QVQLQQSGGGLAQAGGSLRLSCAASGRTFNWYTMAWFRQAPGKEREFVAAIRLGSTVYGDSVKARFTISRDNAKSTVSLQMNSLKPEDTALYYCAVGITGDGTIQGGPYQYWGQGTQVTVSS
notes: on phage in the phage ELISA
B17: NBX09006 (VHH)
VHH: QVQLQESGGGLVQPGGSLRLSCAASGSISGSYVMGWYRQAPGKQRELVATITSGGLTRYADSVKGRWTISRDNAKNTVYLQMNNLKLEDTAVYYCSARRIATTYWGQGTQVTVSS
notes: on phage in the phage ELISA
B18: NBX09002 (VHH)
VHH: QVQLQESGGGLVQAGESLRLSCADSGRTSSTYDMAWFRQAPGKEREFVAAISRDGGRLSYADSVKGRFTISRDNAKNTLSLQMNSLRPEDTAVYYCAAFSIRGGLRPSYKYWGQGTQVTVSS
notes: on phage in the phage ELISA
B19: NBX09008 (VHH)
VHH: QVQLQESGGGLVQAGGSLRLSCSASGRTFSVRAMGWFRQAPGKERESVAAIHQNTRTTLYADSVKGRFAISRDGTKNTVYLQMNSLKPEDTAVYYCAASDDYGLQIKEVAYKYWGQGTQVTVAS
notes: on phage in the phage ELISA
B20: NBX0852 (VHH)
VHH: QVQLQESGGGLVQAGGSLRLSCEASGRTFSSYRVGWFRQAPGKGREFVAAISATGGTTYYGDSVKGRFTISRDNAENTVSLQMNSLEPEDTAVYYCAATKGIVNYRVAGTYDAWGQGTQVTVSS
notes: on phage in the phage ELISA
B21: NBX0861 (VHH)
VHH: QVQLQESGGGLVQAGGSLRLSCVASGSISNSHVMGWYRQAPGKERELVATLTSGGLTHFGDSVKGRFTISRDNAKNTIYLQMNSLKVEDTAVYYCNARRLLTSMWGQGTQVTVSP
notes: on phage in the phage ELISA
B22: NBX0864 (VHH)
VHH: QVQLQESGGGLVQPGGSLRLSCAASGIISSAYVMGWYRQAPGKQRELVATITSGGTTRYADSVKGRITISRDNAKNTVLLQMNSLKPEDTAVYYCNARILLTNYWGQGTQVTVSS
notes: on phage in the phage ELISA
B23: NBX0855 (VHH)
VHH: QVQLQESGGGLVQPGESLRLSCAASTSGFSSYVMAWYRQAPGKQRELVASMTTGGLTNYADSVKGRFTISRDNAKNTVYLQMNSLKPEDTAAYYCNARRLWNAYWGQGTQVTVSS
notes: on phage in the phage ELISA
B24: NBX09011 (VHH)
VHH: QVQLQESGGGLVQPGESLRLSCAASTSGFSSYVMAWYRQAPGKQRELVASMTTGGLTNYADSVKGRFTISRDNAKNTVYLQMNSLKPEDTAAYYCNARRLWNAYWGQGTQVTVSS
notes: on phage in the phage ELISA
B25: NBX0862 (VHH)
VHH: QVQLQESGGGLVQPGGSLRLSCSASGNRFSSSYVLGWYRQAPGKQRELVATVTSGGLTHYGDSVKGRFTISRDNAKNTVYLQMNSLKPEDTAVYYCNARILLTNYWGQGTQVTVSS
notes: on phage in the phage ELISA
B26: NBX0835 (VHH)
VHH: QVQLQESGGGLVQPGGSLRLSCSASGNRFSSSYVMGWYRQAPGKQRELVATVTSGGLTHFKDSVKGRFTISRDNAKNTVYLQMNSLKPEDTAVYYCNARILLTNYWGQGTQVTISS
notes: on phage in the phage ELISA
B27: NBX0859 (VHH)
VHH: QVQLQESGGGLVQPGGSLRLSCSASGNRFSSSYVMGWYRQGPGKQRELVATVTSGGMTHYGDSVKGRFTISRDNAKNTVYLHMNSLKPEDTGVYYCFARRLWDIHWGQGTQVTVSS
notes: on phage in the phage ELISA
B28: NBX0843 (VHH)
VHH: QVQLQESGGGLVQPGGSLRLSCSASGNRFSSSYVMGYYRQAPGKQRELVATVTTGGLTNYADSVKGRFTISRDNAKNTVYLQMNSLKPEDTAVYYCNARILLTNYWGQGTQVTVSS
notes: on phage in the phage ELISA
B29: NBX0614 (VHH)
VHH: QVQLQQSGGGLVQAGGSLRLSCAASGSSFRSNAIGWYRQFPGKSRELIAVITRSGSTQYADSVKGRFTASRDNAKNMIYLQMNNLKLEDTAVYYCHDETMKLISVKNDYWGQGSQVTVSS
notes: on phage in the phage ELISA
B30: NBX0627 (VHH)
VHH: QVQLQQSGGGLVQAGGSLRLSCAASGSSFRSNAIGWYRQSPGKSRELIAVITRSGSTQYADSVKGRFTASRDNAKNMIYLQMNSLKPEDTAVYYCHDETMKLITGKNDYWGQGTQVTVSS
notes: on phage in the phage ELISA

Molecular target: T1, PirB
Experiment: phage ELISA, antigen-coated wells

Binder	binding above PBS-coated wells
B1	≥ 50%
B2	≥ 50%
B3	≥ 50%
B4	≥ 50%
B5	≥ 50%
B6	≥ 50%
B7	≥ 50%
B8	≥ 50%
B9	≥ 50%
B10	≥ 50%
B11	≥ 50%
B12	≥ 50%
B13	≥ 50%
B14	≥ 50%
B15	≥ 50%
B16	≥ 50%
B17	≥ 50%
B18	≥ 50%
B19	≥ 50%
B20	≥ 50%
B21	≥ 50%
B22	≥ 50%
B23	≥ 50%
B24	≥ 50%
B25	≥ 50%
B26	≥ 50%
B27	≥ 50%
B28	≥ 50%
B29	≥ 50%
B30	≥ 50%
